Ends that are not written are not given here.
B2: PFV-Gag-NtD (amino terminal domain of Prototypic Foamy Virus Gag, residues 1-179) (domain or fragment)
chain: MASGSNVEEYELDVEALVVILRDRNIPRNPLHGEVIGLRLTEGWWGQIERFQMVRLILQDDDNEPLQRPRYEVIQRAVNPHTMFMISGPLAELQLAFQDLDLPEGPLRFGPLANGHYVQGDPYSSSYRPVTMAETAQMTRDELEDVLNTQSEIEIQMINLLELYEVETRALRRQLAERS
notes: source: E. coli Rosetta 2 (DE3), purified (Ni-NTA, Superdex 200 SEC); not shown: His-tag, N-terminal, kept

How the values were obtained:
[1] = molecular target: FFV-Gag-NtD (feline foamy virus Gag residues 1-154), His tag removed (feline foamy virus (FFV)); assay: AUC
PFV-Gag-NtD = molecular target: T1, PFV-Gag-NtD (Human spumaretrovirus, UniProt P14349); assay: ITC binding of Env1–20 to PFV-Gag-NtD; parameters: species or system Prototypic Foamy Virus (PFV); conditions: 1 mM Env peptide injected into 50 µM PFV-Gag-NtD, 25 mM Na-phosphate pH 6.55, 100 mM NaCl, 0.5 mM TCEP, read-out: equilibrium association constant (K) (converted)
T1 construct: HFV ht-(M1-S179); made in house; host or cells: E. coli Rosetta 2 (DE3)
T1 sequence (P14349 1-179): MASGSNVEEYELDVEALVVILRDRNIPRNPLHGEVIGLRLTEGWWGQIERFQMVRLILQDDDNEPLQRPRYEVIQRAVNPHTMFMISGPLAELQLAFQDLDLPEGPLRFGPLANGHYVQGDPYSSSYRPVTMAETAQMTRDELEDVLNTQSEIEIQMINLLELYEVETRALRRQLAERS
Source text: The DNA sequences coding for PFV-Gag residues 1–179 (PFV-Gag-NtD) and FFV residues 1–154 (FFV-Gag-NtD) were amplified by PCR from template plasmids pcziGag4 and pcDWF003 containing the PFV and FFV Gag genes respectively. PCR products were inserted into a pET47b expression vector (Novagen) using ligation independent cloning in order to produce N-terminal His-tag fusions with 3C protease cleavage sites. The correct sequence of expression constructs was verified by automated DNA sequencing (Beckman Coulter Genomics). His-tagged PFV- and FFV-Gag-NtD were expressed in the E. coli strain Rosetta 2 (DE3) and purified using Ni-NTA affinity (Qiagen) and size exclusion chromatography on Superdex 200 (GE healthcare). Selenium was incorporated into PFV-Gag-NtD by replacement of methionine with seleno-methionine in defined culture medium and by inhibition of methionine biosynthesis just prior to IPTG induction. Verification of the processed N-terminal methionine, correct molecular mass and degree of selenium incorporation was obtained by electrospray ionisation mass-spectrometry. Peptides comprising residues 1–20 and 5–18 from the PFV-Env leader region were purchased HPLC purified from Pepceuticals Ltd.
ITC was carried out using an ITC-200 calorimeter (MicroCal). […] Data was analysed using the Origin-based software provided by the manufacturers.

[2] = molecular target: FFV Env leader peptide 1-30 (Feline foamy virus) (UniProt O56861); assay: given as Ka; conditions: cited from earlier work
[3] = molecular target: FFV-Gag-NtD (feline foamy virus Gag residues 1-154), His-tagged (feline foamy virus (FFV)); assay: AUC
[4] = molecular target: FFV-Gag-NtD (feline foamy virus Gag residues 1-154), His-tagged (feline foamy virus (FFV)); assay: SEC-MALS
[5] = Sedimentation equilibrium AUC of Gag-NtDs; type: physicochemical; conditions: for weight averaged molecular weight, sedimentation equilibrium: multispeed, global fit with single ideal molecular species model; for Mw (sedimentation equilibrium): weight averaged, Global SE analysis, pH 7.5
Procedure: Sedimentation equilibrium experiments were performed in a Beckman Optima XL-I analytical ultracentrifuge using charcoal filled Epon six-channel centrepieces in an An-50 Ti rotor. Prior to centrifugation, samples were dialyzed exhaustively against the buffer blank, 20 mM Tris-HCl, pH 7.5, 150 mM NaCl, 0.5 mM TCEP. After centrifugation for 18 h, interference data was collected 2-h intervals until no further change in the profiles was observed. The rotor speed was then increased and the procedure repeated. Data were collected on samples of different concentrations of FFV- and PFV-Gag-NtD (14–100 µM) at three speeds and the program SEDPHAT [93], [94] was used to determine weight-averaged molecular masses by nonlinear fitting of individual multi-speed equilibrium profiles (A versus r) to a single-species ideal solution model.

[6] = Sedimentation velocity AUC of Gag-NtDs; type: physicochemical; conditions: for ƒ/ƒ0 (D20,w): frictional ratio calculated from D20,w; for ƒ/ƒ0 (D20,w) / ƒ/ƒ0 (S20,w): discrete component analysis; for ƒ/ƒ0 (S20,w): frictional ratio calculated from S20,w; for sedimentation coefficient S20,w: no concentration dependency over the range measured; for D20,w (×10^7) / Mw C(S) / S20,w (×10^13): sedimentation velocity; for D20,w (×10^7) / S20,w (×10^13): 293 K, pH 7.5, Crange 20–90 µM (PFV), 30–130 µM (FFV); for Mw C(S): C(S) analysis; for S20,w (×10^13): discrete component analysis, 50,000 rpm; for Mw (S/D): weight averaged molecular weight from discrete component analysis; for ƒ/ƒ0 C(S): weight-averaged frictional ratio from best fit C(S) distribution function
Procedure: (§1) Sedimentation velocity experiments were performed in a Beckman Optima Xl-I analytical ultracentrifuge using conventional aluminium double sector centrepieces and sapphire windows. Solvent density and the protein partial specific volumes were determined as described. Prior to centrifugation, samples were prepared by exhaustive dialysis against the buffer blank solution, 20 mM Tris-HCl, 150 mM NaCl and 0.5 mM TCEP, pH 7.5. Centrifugation was performed at 50,000 rpm and 293 K in an An50-Ti rotor. Interference data were acquired at time intervals of 180 sec at varying sample concentration (0.5–2.5 mg/ml). Data recorded from moving boundaries was analysed using both a discrete species model and in terms of the size distribution functions C(S) using the program SEDFIT [90], [91], [92]. For analysis of Env peptide binding, sedimentation velocity experiments were conducted in 3 mm pathlength centrepieces using equimolar mixtures (75 µM) of PFV-Gag-NtD and Env peptides. In these experiments, radial absorbance scans at 280 nm were also recorded along with the interference data.

[7] = SEC-MALLS solution molecular weight of Gag-NtDs; type: physicochemical; conditions: Superdex 200 10/300 GL, 20 mM Tris-HCl, 150 mM NaCl, 0.5 mM TCEP, pH 8.0; 12-1.5 mg/ml, concentration invariant
Procedure: Size exclusion chromatography coupled multi-angle laser light scattering (SEC-MALLS) was used to determine the molar mass of FFV- and PFV-Gag-Ntd. Samples ranging from 1.5 to 12.0 mgml^−1 were applied in a volume of 100 µl to a Superdex 200 10/300 GL column equilibrated in 20 mM Tris-HCl, 150 mM NaCl and 0.5 mM TCEP, pH 8.0, at a flow rate of 0.5 ml/min. The scattered light intensity and the protein concentration of the column eluate were recorded using a DAWN-HELEOS laser photometer and OPTILAB-rEX differential refractometer respectively. The weight-averaged molecular mass of material contained in chromatographic peaks was determined from the combined data from both detectors using the ASTRA software version 6.0.3 (Wyatt Technology Corp., Santa Barbara, CA, USA).

SEC-MALS = molecular target: the molecule itself; assay: SEC-MALS
[8] = tested on: PFV Env leader peptide (Env-LP), Env1–20; assay: SV-AUC binding of PFV-Gag-NtD mutants to Env1–20 (Env-LP); parameters: species or system Prototypic Foamy Virus (PFV); conditions: for Gag-Env binding (in words): 75 µM equimolar Gag-NtD mutant and Env1–20
Procedure: as §1
Data were analysed using a general binding expression, Eq. 1. This expression relates the association constant Ka to the fraction of bound peptide θ (θ = [PL]/[Lt]) in terms of the total concentrations of peptide [Lt] and protein [Pt] and is a modification of the formulae employed in [95], [96]. [drawing 1] (1) In sedimentation velocity experiments θ was determined from the integrated absorbance of the 3S species in the C(S) function that best fits the sedimentation data. As equimolar ratios of peptide and protein were employed ([Lt] = [Pt]) Eq. 1 can be simplified and equilibrium association constants determined from Eq. 2. [drawing 2] (2)

[9] = molecular target: B2; assay: AUC; sedimentation velocity of 75 µM equimolar mixtures of Gag-NtD and Env peptide, absorbance at 280 nm; bound fraction from the integrated absorbance of the 3S species in C(S); conditions: both partners purified
[10] = molecular target: T2, PFV-Gag-NtD (amino terminal domain of Prototypic Foamy Virus Gag, residues 1-179) (Prototypic foamy virus (PFV), UniProt P14349 1-179); assay: AUC
T2 chain: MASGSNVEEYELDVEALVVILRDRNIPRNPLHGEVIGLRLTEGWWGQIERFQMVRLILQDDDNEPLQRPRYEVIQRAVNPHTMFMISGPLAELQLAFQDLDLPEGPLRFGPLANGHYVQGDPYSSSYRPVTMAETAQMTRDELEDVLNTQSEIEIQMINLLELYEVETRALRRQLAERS

FFV-Gag-NtD (feline foamy virus Gag residues 1-154), His tag removed (domain or fragment)
stoichiometry N [1]: 2

MAPPMTLQQWIIWKKMNKAH [Env1–20]
Kd (PFV-Gag-NtD): 6.67 µM

FFV Gag (from UniProt O56860)
Kd [2]: 15.4 µM

FFV-Gag-NtD (feline foamy virus Gag residues 1-154), His-tagged (domain or fragment)
stoichiometry N [3]: 2
stoichiometry N [4]: 2

B1: FFV-Gag-NtD: FFV Gag residues 1–154, N-terminal His-tag fusion expressed in E. coli (protein, UniProt O56860 1-154, looked up, fragment)
chain: MARELNPLQLQQLYINNGLQPNPGHGDIIAVRFTGGPWGPGDRWARVTIRLQDNTGQPLQVPGYDLEPGIINLREDILIAGPYNLIRTAFLDLEPARGPERHGPFGDGRLQPGDGLSEGFQPITDEEIQAEVGTIGAARNEIRLLREALQRLQA
modifications: N-terminal His-tag
notes: FFV Gag residues 1–154, N-terminal His-tag fusion expressed in E. coli
weight averaged molecular weight, sedimentation equilibrium [5]: 33.7 kDa
Mw (sedimentation equilibrium) ([5]; Crange 14–50 µM, FFV-154 sample with the His tag removed): ^h33.7±1 kD
ƒ/ƒ0 (D20,w) [6]: 1.42
ƒ/ƒ0 (S20,w) [6]: 1.49
sedimentation coefficient S20,w [6]: 2.72
D20,w (×10^7) [6]: 6.81±0.3 cm^2 sec^−1
Mw C(S) [6]: 37.4±1 kD
S20,w (×10^13) [6]: 2.72±0.01 sec
Mw (S/D) [6]: 36.1±1.5 kD
ƒ/ƒ0 C(S) [6]: 1.47
solution molecular weight (SEC-MALLS) [7]: 34.0 kDa

B2
stoichiometry N (SEC-MALS): 2

B3: Val14/Leu21 to serine (protein)
chain: MASGSNVEEYELDSEALVVISRDRNIPRNPLHGEVIGLRLTEGWWGQIERFQMVRLILQDDDNEPLQRPRYEVIQRAVNPHTMFMISGPLAELQLAFQDLDLPEGPLRFGPLANGHYVQGDPYSSSYRPVTMAETAQMTRDELEDVLNTQSEIEIQMINLLELYEVETRALRRQLAERS
modifications: left off: His-tag, N-terminal, state not stated
reduction of Gag-Env affinity (fold) ([8]; 75 µM equimolar Gag-NtD mutant and Env1–20, relative to wt PFV-Gag-NtD): twenty-fold

B4: PFV-Gag-NtD: PFV-Gag residues 1–179, N-terminal His-tag fusion expressed in E. coli (protein, UniProt P14349 1-179, looked up, fragment)
chain: MASGSNVEEYELDVEALVVILRDRNIPRNPLHGEVIGLRLTEGWWGQIERFQMVRLILQDDDNEPLQRPRYEVIQRAVNPHTMFMISGPLAELQLAFQDLDLPEGPLRFGPLANGHYVQGDPYSSSYRPVTMAETAQMTRDELEDVLNTQSEIEIQMINLLELYEVETRALRRQLAERS
modifications: N-terminal His-tag
notes: PFV-Gag residues 1–179, N-terminal His-tag fusion expressed in E. coli
weight averaged molecular weight, sedimentation equilibrium [5]: 44 kDa
Mw (sedimentation equilibrium) ([5]; Crange 30–100 µM, His-tagged): 44±2 kD
ƒ/ƒ0 (D20,w) [6]: 1.52
ƒ/ƒ0 (S20,w) [6]: 1.48
sedimentation coefficient S20,w [6]: 3.08
D20,w (×10^7) [6]: 5.96±0.04 cm^2 sec^−1
Mw C(S) [6]: 48.2±1 kD
S20,w (×10^13) [6]: 3.08±0.02 sec
Mw (S/D) [6]: 46.7±0.2 kD
ƒ/ƒ0 C(S) [6]: 1.54
solution molecular weight (SEC-MALLS) [7]: 40.0 kDa

B5: Asn29 to glutamine (protein, UniProt P14349 1-179, looked up, variant N29Q)
chain: MASGSNVEEYELDVEALVVILRDRNIPRQPLHGEVIGLRLTEGWWGQIERFQMVRLILQDDDNEPLQRPRYEVIQRAVNPHTMFMISGPLAELQLAFQDLDLPEGPLRFGPLANGHYVQGDPYSSSYRPVTMAETAQMTRDELEDVLNTQSEIEIQMINLLELYEVETRALRRQLAERS
modifications: N-terminal His-tag
Gag-Env binding (in words) [8]: little effect on Env binding

B6: triple substitution where Val14, Val18 and Leu21 were all substituted by serine (protein, UniProt P14349 1-179, looked up, variant V14S V18S L21S)
chain: MASGSNVEEYELDSEALSVISRDRNIPRNPLHGEVIGLRLTEGWWGQIERFQMVRLILQDDDNEPLQRPRYEVIQRAVNPHTMFMISGPLAELQLAFQDLDLPEGPLRFGPLANGHYVQGDPYSSSYRPVTMAETAQMTRDELEDVLNTQSEIEIQMINLLELYEVETRALRRQLAERS
modifications: N-terminal His-tag
Gag-Env binding (in words) [8]: reduced binding to an undetectable level

B7: PFV Env leader peptide residues 5-18 (peptide)
peptide: MTLQQWIIWKKMNK
notes: source: synthetic peptide, bought HPLC purified: Pepceuticals Ltd
Ka [9]: 20000 M⁻¹
Kd [10]: 49.4 µM

Source: article PMC3649970, “A Unique Spumavirus Gag N-terminal Domain with Functional Properties of Orthoretroviral Matrix and Capsid” (PLoS Pathogens, 2013)
